# According to US20240158512A1 (TRUEBINDING, published 2024):
# B1: TB006 (antibody, human IgG4 S228P, kappa, V domains shown)
# VH: QVQLVQSGAEVKKPGASVKVSCKASGYSFTNYYMHWVRQAPGQRLEWMGWIYPGSGNTNYNEKFQGRVTITADTSASTAYMELSSLRSEDTAVYYCSTAPGGFDVWGQGTTVTVSS
# VL: DIVMTQTPLSLSVTPGQPASISCKSSKSLLHSDGITYLYWYLQKPGQSPQLLIYRMSNLASGVPDRFSGSGSGTDFTLKISRVEAEDVGVYYCAQMLEFPLTFGQGTKLEIKR
# notes: Tested as formulated drug substance or drug product in 20 mM L-histidine, 5 mM methionine, 100 mM NaCl, 0.02% polysorbate 80, pH 5.8, or diluted in 0.9% saline; also called 4A11.H3L1; IMT006a
# Biological target: T1, Galectin-3 (UniProt P17931 1-250, limits assumed)
# T1 construct: Target of the anti-Gal3 antibody TB006; also called Gal3; GAL3
# Assay: BLI; after 4 C for 18 months
# T1 sequence (P17931 whole entry): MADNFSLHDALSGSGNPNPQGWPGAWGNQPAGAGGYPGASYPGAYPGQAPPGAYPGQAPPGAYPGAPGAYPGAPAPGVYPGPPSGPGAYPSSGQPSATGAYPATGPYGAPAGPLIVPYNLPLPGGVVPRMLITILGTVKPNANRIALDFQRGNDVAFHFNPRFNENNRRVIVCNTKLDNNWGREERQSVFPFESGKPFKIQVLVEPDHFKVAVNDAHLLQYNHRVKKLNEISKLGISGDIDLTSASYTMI
binder,measurement,value
B1,Kd,2.1 nM
